Laboratory results taken from the DeepSol protein solubility set.

Assay: soluble on expression in E. coli; label from the status in PepcDB or PDB records

Row | Sequence | soluble on expression in E. coli
1 | MQNPIDSLLYVKISAEQAGKIFENLESSIPLPIQLSEPGQKEDFKAENIKPEMILAGMLTVFAYDRENPHITYYRKIFNLLRPDIRKEMTEAAIIKIKNNDFDMAEEILLSLEGLNPDDGITKLNLALLMEERSQFCEMRELFEDALSFNKRAEELYSELILFEPPLPGVFFNAAYFFIKQKNYIKAKSLLKTYLEIENDSSETAEFRKAKASELLKTISEQALDDELFQKAYKCIDLGEEEKAAESIKLFLRKNPKVWNAWFLLGWALRRMGRWEDARSSFLKTIELLENSEISDKEPLCDVYNELAICLMELELFDEAEKHLINALSLDSENIKIISNLGTLALKQGKQEEAEAFFRTVLEINPDDKIALNVLGKPRA | not soluble
2 | MEKTVNPFRIGIAPISWVNDDIPGLGDHYTQDQVLSEMAELGYVATEMGRLFSQDPPSLRAKLNQYGIELASKFIGVLFSDRSRLEEELETFQSWAEYLHDMGCKYAIVCEMGGSMHWDPRRAPEEKTIQRLTDSEWESLVDGLHRAAHICQELGMKLVYHFHAGTVVETAEEIDRLMELTDPNLVHLLYDTGHALYGGYDPVELLHRYADRIQYVHLKDIRRDVLEQVRREQLDFRTAVLRGMFTVPGDGCIDFVPIFSKLIEMGYNGWIIVEAEQDPAVAHPYTYAKMAKEYIDRLVHHLLAAQKR | not soluble
3 | MALGPLVTGLYDVQAFKFGDFVLKSGLSSPIYIDLRGIVSRPRLLSQVADILFQTAQNAGISFDTVCGVPYTALPLATVICSTNQIPMLIRRKETKDYGTKRLVEGTINPGETCLIIEDVVTSGSSVLETVEVLQKEGLKVTDAIVLLDREQGGKDKLQAHGIRLHSVCTLSKMLEILEQQKKVDAETVGRVKRFIQEAHHHHHH | soluble
4 | MEGWQRAFVLHSRPWSETSLMLDVFTEESGRVRLVAKGARSKRSNLKGALQPFTPLLLRYSGRGEVKTLRSAEAVSLALPLSGITLYSGLYINELLSRVLEYETRFSELFFDYLNCIQALAGTTGSPEPALRRFELALLGHLGYGVNFTHCAGSGERVDDTMTYRYREEKGFFASVVIDNNTFTGRHLKALEAREFPDVDTLRAAKRFTRMALKPYLGGKPLKSRELFRQFMPKRTVKTKKD | not soluble
5 | NEHSKWMILDRVRFTLDGLECDKIGVGYEAYRNQPNFCSAPYGSCLGNQLWNFWEYDKRRIDNSQLPLYIVEGRFQRINQHPNAGAHTFSVGVTEDLNTNLLIELMADDIEYVYQRSPAKIIDIRVPTFEALSQVGIANVTTKNIGKLESSYSLTFKCSSGISPVEEQLYTMKPDEVIARSFELRSTTDQAAMHQCEAILKASDFSELDREGYRFSTAATVYNNGAQIGPTNDHKKGGFWDSIKALWRNLIDFLTGRLCWTKCPRLFDFGCHI | not soluble
6 | MAHHHHHHMNHSPFLTALYTDVQSRLPLWTTRYVKPISNGTFAVSSTWTDDSGAQLQRLFIAVEASDTNCISEAVLAEWIAFVEAWQAAHKEDEVSCFVGFVDLAGTVSYYRCETAVAGAWRSKPDDHLTCR | not soluble
7 | MSLNPPYTIVFALYPGVTQLDFTGPLEFLSKLPHARCVLASSRGEDIRADGGIVFADIARLGAIERCDLLLVPGGLGTIEAMEDAELLAQLRRLAASADYVSSVCTGSLLLGAAGLLKGRRAACHWAWLDSLAAFGAQPCPDRVVVDGKLISGGGVTAGIDMALTLMAEIAGPQFAQTAQLTLEYAEGHHHHHH | not soluble
8 | MTLRSQDPRIAIIGGGIAGATAAVHLGELGLNVVLMEKSAGLVSGPPICHLHAGGNLYREISEQQCIDLLEQSIETVRLYPHTLNVRPTLIAIPQSDPGQPEEILPRLVTIQNAYRKLVEQDAANQVLGAVDNYYRLYQREELERLAQQQQANPPQSDDEWVIPFAQHADLAQLKYPVVLVQEYGWSVFRLAASVDLTLEALPNCQVMLRTELVDATFQDNQWRLTYLDAQGERHTQTVDYLVNACGFETGRVDDMARHHRQRLVEFKAAYVTHWPACHQWWPEVIFHGPRGSEDGMAQLTPYADGTFQLHGMTESITLFADGLVASTPTSAQPQLPLYLQHKIERGWPMSAQQERTVRAIQHMSRFVPSFDNAEFAGKPLFGAQQIPGDDVTLRAADVSFEANQYARLEVVKGSSALRAARQLVAVWQLKPDAGELSIETEHPCSMAFTAQQVEQQAIRLCHARGYPAALAKVYGLLEHHHHHH | soluble
9 | KSNYVRVIPNPKVPTDYPAITIEMNDTVSSEQTIEALKSIERVMQEVESQTIADHGQGMIRDVLSYNRSRTEGRVLVPLVDEEIRPFNTFELARRWREAMPVIPGMKSIKIREQSAGGGDRDEFGYLLFGSNINELNQAGRYLIERLQQEEGLFDISSSIDSGSKEVLLSLAPVAYDLGLDLTMIAQQVGGSFYGGEAQRLIRDGEEIKVMVRYPQLTREAFSSLRYAVITTPAGKKVMLGDVVNISEQPGVSTIRREGGYQTVYVYGSIDEELVEPQEIVKIIDDSILPDMKKLHPSVKTELGGDIEEQAAQRNEQ | not soluble
10 | MKIRTSMIALSLAALLSGCQSLNTEGLMQSGAQAFQAATLNDADVKALSEKSCVEMDQKAQIASADSQYGKRMAKIAAALGDNINGTPANYKVYVTKDVNAWAMANGCIRVYSGLMDMMTDNEVEGVVGHEMGHVALGHTRKAMQVAYGTTALRTAIASAGGVVGTLSQSQLADLGEKLVNAQFSQKQESEADDYSFDLLKKRGIDPNGLVTSFEKLASMEAGRNSSMFDDHPSSQARAEHIRQRIAAEK | not soluble
11 | VALSADIVGMHYRYPDHYEVEREKIREYAVAVQNDDAWYFEEDGAAELGYKGLLAPLTFICVFGYKAQAAFFKHANIATAEAQIVQVDQVLKFEKPIVAGDKLYCDVYVDSVREAHGTQIIVTKNIVTNEEGDLVQETYTTLAGRAGEDGEGFSDGAA | soluble
12 | MTFNHKKMEPKWQQYWSEHNTFKTTEDKNKENFYALDMFPYPSGAGLHVGHPEGYTATDILSRMKRMQGKNVLHPIGWDAFGLPAEQYAIDTGNDPEEFTALNIANFTRQIKSLGFSYDWDREINTTDPEYYKWTQWIFEKLYENGLAYEAEIAVNWCPALGTVLANEEVIDGKSERGGFPVFRKPMRQWMLKITAYADRLLDDLDLVDWPENIKDMQRNWIGRSEGAEVTFKIKDSDETFNVFTTRPDTLFGATYTVFAPEHELIEKITTPEQKEAVEAYKKQVELKSELERTDLAKDKTGVFTGAYAINPINGEEVPIWIADYVLIQYGTGAIMAVPAHDERDFEFAQQFGLNIRPVLEGGDVTKEAFTGDGPHINSDFLNGLAKAEAITAAIDWLEKEGIGSRKITYRLRDWLFSRQRYWGEPIPVIHWEDGETTLVPEEELPLLLPKATEIKPSGTGESPLANLHDWVNVTDENGRKGRRETNTMPQWAGSSWYFLRYIDPKNSEAIADKEKLAEWLPVDVYIGGAEHAVLHLLYARFWHKFLYDIGVVPTKEPFQKLFNQGMILGENNEKMSKSRGNVVNPDEVVEKYGADTLRLYEMFMGPLEASIAWNENGLEGARKFLDRIWRLLVTEEGTLAEKVTTDANANLEKAYHHMVKTVTNHYENLRFNTGISQLMIFINEAYKQDTIPKQYVEGFVQLLSPIAPHLAEELWEILGHTETISYVAWPTYDETKLVEDEVEIVLQVNGKVKSKITVAKSLGKEELEKIAQEDNKMKENLEGKTIRKVIVVPGKLVNIVAN | not soluble
13 | MSLTTGRISELLSPNYADLNDPRPIFDWMQVIRKRAVVYVGLDALSDTEVAAAVGNSMFSDLVSVAGHIYKHGVDDGLPGSLAGGKVRINLHADEFNELIGDEFIPMVNKAGGAGVQVTAYTQTMSDIEAKIGSRAKAGQIIGNFNNLFMLRVRETATAELLTNQLPKVQIYTSTPASGANDAINNKKAAFTSSSHDQVQMTSVPMLEPAHIVGLPKGQAFALLEGGNLWKIRMPLPAVDPDEVMPKSLQELAAGMRKGQAANSEGHHHHHH | not soluble
14 | MVRIYTLTLAPSLDSATITPQIYPEGKLRCTAPVFEPGGGGINVARAIAHLGGSATAIFPAGGATGEHLVSLLADENVPVATVEAKDWTRQNLHVHVEASGEQYRFVMPGAALNEDEFRQLEEQVLEIESGAILVISGSLPPGVKLEKLTQLISAAQKQGIRCIVDSSGEALSAALAIGNIELVKPNQKELSALVNRELTQPDDVRKAAQEIVNSGKAKRVVVSLGPQGALGVDSENCIQVVPPPVKSQSTVGAGDSMVGAMTLKLAENASLEEMVRFGVAAGSAATLNQGTRLCSHDDTQKIYAYLSR | soluble
15 | MAEIKHYQFNVVMTCSGCSGAVNKVLTKLEPDVSKIDISLEKQLVDVYTTLPYDFILEKIKKTGKEVRSGKQLAREVILAVHGMTCSACTNTINTQLRALKGVTKCDISLVTNECQVTYDNEVTADSIKEIIEDCGFDCEILRDS | soluble
